Columns and labels:
[1] = target: recombinant streptococcal pyrogenic exotoxin C (SPE-C) (Streptococcus pyogenes); assay: SEC
[2] = target: recombinant streptococcal pyrogenic exotoxin C (SPE-C) (Streptococcus pyogenes); assay: nondenaturing SDS-PAGE

“recombinant streptococcal pyrogenic exotoxin C (SPE-C) (natural protein)” was tested, and the percent dissociated to the monomer form [1] was 50%, the stoichiometry N [1] was 2 and the percent of SPE-C in dimer form [2] was > 60%.
